Assay results reported in paper PMC5686162, “Non-canonical activation of OmpR drives acid and osmotic stress responses in single bacterial cells” (Nature Communications, 2017).

Experiments:
[1] = biological target: EnvZc C277Y (S. Typhimurium) (UniProt P08982); experiment: SEC; gel filtration profiles of EnvZc, EnvZc C277Y, OmpR, (OmpR + EnvZc) and (OmpR + EnvZc C277Y); Superose 12 10/300 GL for EnvZc, AKTA FPLC, 0.5 ml/min, 'suitable buffers'; fractions analysed by SDS-PAGE
OmpR = OmpR (UniProt P0AA16); experiment: SEC; oligomeric state of OmpR alone under acidic conditions; Hiload 16/60 Superdex 75 pg for OmpR; OmpR buffer exchanged into 20 mM Tris, 200 mM NaCl
EnvZc = biological target: T1, EnvZc ( (S. Typhimurium or E. coli …, UniProt P08982 1-450)); experiment: SEC; gel filtration profiles of EnvZc, EnvZc C277Y, OmpR, (OmpR + EnvZc) and (OmpR + EnvZc C277Y); Superose 12 10/300 GL for EnvZc, AKTA FPLC, 0.5 ml/min, 'suitable buffers'; fractions analysed by SDS-PAGE; conditions: both partners purified
T1 construct: EnvZ sensor histidine kinase, cytoplasmic domain (EnvZc); also called wild-type EnvZc; cytoplasmic domain of EnvZ
T1 sequence: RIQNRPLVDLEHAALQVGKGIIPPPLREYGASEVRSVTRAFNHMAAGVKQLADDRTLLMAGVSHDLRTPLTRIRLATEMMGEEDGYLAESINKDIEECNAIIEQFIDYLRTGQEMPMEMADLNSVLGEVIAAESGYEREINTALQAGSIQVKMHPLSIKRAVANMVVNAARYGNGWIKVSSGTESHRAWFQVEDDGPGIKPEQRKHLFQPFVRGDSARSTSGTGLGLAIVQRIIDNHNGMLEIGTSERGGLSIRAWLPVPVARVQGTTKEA

Molecule: EnvZc C277Y (from UniProt P08982 1-450) (domain or fragment)
- stoichiometry N [1]: 2

Molecule: OmpR (from UniProt P0AA16 1-239) (natural protein)
- stoichiometry N (OmpR): 2

B1: OmpR (natural protein)
chain: MQENYKILVVDDDMRLRALLERYLTEQGFQVRSVANAEQMDRLLTRESFHLMVLDLMLPGEDGLSICRRLRSQSNPMPIIMVTAKGEEVDRIVGLEIGADDYIPKPFNPRELLARIRAVLRRQANELPGAPSQEEAVIAFGKFKLNLGTREMFREDEPMPLTSGEFAVLKALVSHPREPLSRDKLMNLARGREYSAMERSIDVQISRLRRMVEEDPAHPRYIQTVWGLGYVFVPDGSKA
notes: OmpR, response regulator of the EnvZ-OmpR two-component system; The unphosphorylated protein was used in gel filtration; also called His-OmpR; source: E. coli BL21 (DE3), from pET15b, purified
- stoichiometry N (EnvZc): 2 OmpR molecules per EnvZc dimer
